Measured values taken from patent publication US20240279318A1 (NANJING LEGEND BIOTECH, published 2024).

How the values were obtained:
[1] = molecular target: T1, AFP158/HLA-A*02:01 complex (human); assay: SPR, fold vs AS170036 VL1VH1;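 also: crude scFv muteins immobilised on a sensor chip, peptide–MHC complex passed over at several concentrations, binding then buffer-driven dissociation, KD estimated from on- and off-rates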
T1 construct: flowed as analyte in SPR
Description: The experiment was carried out as follows. The crude scFv protein were captured onto the sensorchip. Different concentrations (320, 160, 40 nM) of AFP158/HLA-A*02:01 complex flowed over the sensorchip surface, and were allowed to bind the antibody fragment for 100 s followed by injection of the running buffer to allow dissociation of the complex. On-rate (kd) and off-rate (kd) were calculated based on association and dissociation curve, and were used to estimate the equilibrium dissociation constant (KD).
The crude scFv muteins were then subjected to SPR affinity measurement by the method mentioned above.

[2] = molecular target: T1, AFP158/HLA-A*02:01 complex; assay: SPR, crude scFv captured, pMHC analyte;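 also: pMHC analyte injected at three concentrations, association phase of one hundred seconds, then running buffer for dissociation, rates fitted from both curves, KD derived from the rates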

Binder	Affinity increase [1] [fold]	Kd [2] [nM]	koff [2] [s⁻¹]	kon [2] [M⁻¹ s⁻¹]
AS170036 VL1VH1-57K108D (scFv, also called 26-AS170036 VL1VH1-57K108D) scFv: QSALTQPRSVSGSPGQSVTISCAGTSSDVGSENYVSWYQQHPGKAPKLMIYQVNKRASGVPDRFSGSKSGNTASLTISGLQAEDEADYYCASYRSSDHNIVFGGGTKLTVLGGGGSGGGGSGGGGSEVQLVESGGGLVQPGGSLRLSCAASGFTFSSYAMSWVRQAPGKGLEWVSTINSGTGKPYYADSVKGRFTISRDNSKNTLYLQMNSLRAEDTAVYYCAKNFFDGSWFLDPPAMDYWGQGTLVTVSSHHHHHH	18.9	12	0.0022	190000
AS170036 VL1VH1-98I108A (scFv, also called 34-AS170036 VL1VH1-98I108A; 34-AS170036 VL1VH1-98I08A) scFv: QSALTQPRSVSGSPGQSVTISCAGTSSDVGSENYVSWYQQHPGKAPKLMIYQVNKRASGVPDRFSGSKSGNTASLTISGLQAEDEADYYCASYRSSDINIVFGGGTKLTVLGGGGSGGGGSGGGGSEVQLVESGGGLVQPGGSLRLSCAASGFTFSSYAMSWVRQAPGKGLEWVSTINSGTGSPYYADSVKGRFTISRDNSKNTLYLQMNSLRAEDTAVYYCAKNFFDGSWFLAPPAMDYWGQGTLVTVSSHHHHHH	20.1	11	0.0031	280000
AS170036 VL1VH1-98Q108A (scFv, also called 37-AS170036 VL1VH1-98Q108A) scFv: QSALTQPRSVSGSPGQSVTISCAGTSSDVGSENYVSWYQQHPGKAPKLMIYQVNKRASGVPDRFSGSKSGNTASLTISGLQAEDEADYYCASYRSSDQNIVFGGGTKLTVLGGGGSGGGGSGGGGSEVQLVESGGGLVQPGGSLRLSCAASGFTFSSYAMSWVRQAPGKGLEWVSTINSGTGSPYYADSVKGRFTISRDNSKNTLYLQMNSLRAEDTAVYYCAKNFFDGSWFLAPPAMDYWGQGTLVTVSSHHHHHH	20.5	11	0.0028	250000
AS170036 VL1VH1-57M98F (scFv, also called 13-AS170036 VL1VH1-57M98F) scFv: QSALTQPRSVSGSPGQSVTISCAGTSSDVGSENYVSWYQQHPGKAPKLMIYQVNKRASGVPDRFSGSKSGNTASLTISGLQAEDEADYYCASYRSSDFNIVFGGGTKLTVLGGGGSGGGGSGGGGSEVQLVESGGGLVQPGGSLRLSCAASGFTFSSYAMSWVRQAPGKGLEWVSTINSGTGMPYYADSVKGRFTISRDNSKNTLYLQMNSLRAEDTAVYYCAKNFFDGSWFLGPPAMDYWGQGTLVTVSSHHHHHH	9.3	24	0.0087	360000
AS170036 VL1VH1-98F108A (scFv, also called 31-AS170036 VL1VH1-98F108A) scFv: QSALTQPRSVSGSPGQSVTISCAGTSSDVGSENYVSWYQQHPGKAPKLMIYQVNKRASGVPDRFSGSKSGNTASLTISGLQAEDEADYYCASYRSSDFNIVFGGGTKLTVLGGGGSGGGGSGGGGSEVQLVESGGGLVQPGGSLRLSCAASGFTFSSYAMSWVRQAPGKGLEWVSTINSGTGSPYYADSVKGRFTISRDNSKNTLYLQMNSLRAEDTAVYYCAKNFFDGSWFLAPPAMDYWGQGTLVTVSSHHHHHH	19.1	12	0.0039	330000
AS170036 VL1VH1-57M98Q (scFv, also called 15-AS170036 VL1VH1-57M98Q) scFv: QSALTQPRSVSGSPGQSVTISCAGTSSDVGSENYVSWYQQHPGKAPKLMIYQVNKRASGVPDRFSGSKSGNTASLTISGLQAEDEADYYCASYRSSDQNIVFGGGTKLTVLGGGGSGGGGSGGGGSEVQLVESGGGLVQPGGSLRLSCAASGFTFSSYAMSWVRQAPGKGLEWVSTINSGTGMPYYADSVKGRFTISRDNSKNTLYLQMNSLRAEDTAVYYCAKNFFDGSWFLGPPAMDYWGQGTLVTVSSHHHHHH	8	28	0.0067	240000
AS170036 VL1VH1-98I108S (scFv, also called 36-AS170036 VL1VH1-98I108S) scFv: QSALTQPRSVSGSPGQSVTISCAGTSSDVGSENYVSWYQQHPGKAPKLMIYQVNKRASGVPDRFSGSKSGNTASLTISGLQAEDEADYYCASYRSSDINIVFGGGTKLTVLGGGGSGGGGSGGGGSEVQLVESGGGLVQPGGSLRLSCAASGFTFSSYAMSWVRQAPGKGLEWVSTINSGTGSPYYADSVKGRFTISRDNSKNTLYLQMNSLRAEDTAVYYCAKNFFDGSWFLSPPAMDYWGQGTLVTVSSHHHHHH	7.7	29	0.007	240000
AS170036 VL1VH1-98Q108D (scFv, also called 38-AS170036 VL1VH1-98Q108D) scFv: QSALTQPRSVSGSPGQSVTISCAGTSSDVGSENYVSWYQQHPGKAPKLMIYQVNKRASGVPDRFSGSKSGNTASLTISGLQAEDEADYYCASYRSSDQNIVFGGGTKLTVLGGGGSGGGGSGGGGSEVQLVESGGGLVQPGGSLRLSCAASGFTFSSYAMSWVRQAPGKGLEWVSTINSGTGSPYYADSVKGRFTISRDNSKNTLYLQMNSLRAEDTAVYYCAKNFFDGSWFLDPPAMDYWGQGTLVTVSSHHHHHH	16.3	14	0.0045	330000
AS170036 VL1VH1-57K108S (scFv, also called 27-AS170036 VL1VH1-57K108S) scFv: QSALTQPRSVSGSPGQSVTISCAGTSSDVGSENYVSWYQQHPGKAPKLMIYQVNKRASGVPDRFSGSKSGNTASLTISGLQAEDEADYYCASYRSSDHNIVFGGGTKLTVLGGGGSGGGGSGGGGSEVQLVESGGGLVQPGGSLRLSCAASGFTFSSYAMSWVRQAPGKGLEWVSTINSGTGKPYYADSVKGRFTISRDNSKNTLYLQMNSLRAEDTAVYYCAKNFFDGSWFLSPPAMDYWGQGTLVTVSSHHHHHH	10.1	22	0.0026	120000
AS170036 VL1VH1-98F108D (scFv, also called 32-AS170036 VL1VH1-98F108D) scFv: QSALTQPRSVSGSPGQSVTISCAGTSSDVGSENYVSWYQQHPGKAPKLMIYQVNKRASGVPDRFSGSKSGNTASLTISGLQAEDEADYYCASYRSSDFNIVFGGGTKLTVLGGGGSGGGGSGGGGSEVQLVESGGGLVQPGGSLRLSCAASGFTFSSYAMSWVRQAPGKGLEWVSTINSGTGSPYYADSVKGRFTISRDNSKNTLYLQMNSLRAEDTAVYYCAKNFFDGSWFLDPPAMDYWGQGTLVTVSSHHHHHH	17.6	13	0.0057	450000
AS170036 VL1VH1-98F108S (scFv, also called 33-AS170036 VL1VH1-98F108S) scFv: QSALTQPRSVSGSPGQSVTISCAGTSSDVGSENYVSWYQQHPGKAPKLMIYQVNKRASGVPDRFSGSKSGNTASLTISGLQAEDEADYYCASYRSSDFNIVFGGGTKLTVLGGGGSGGGGSGGGGSEVQLVESGGGLVQPGGSLRLSCAASGFTFSSYAMSWVRQAPGKGLEWVSTINSGTGSPYYADSVKGRFTISRDNSKNTLYLQMNSLRAEDTAVYYCAKNFFDGSWFLSPPAMDYWGQGTLVTVSSHHHHHH	8.6	26	0.0086	330000
AS170036 VL1VH1-98Q108S (scFv, also called 39-AS170036 VL1VH1-98Q108S) scFv: QSALTQPRSVSGSPGQSVTISCAGTSSDVGSENYVSWYQQHPGKAPKLMIYQVNKRASGVPDRFSGSKSGNTASLTISGLQAEDEADYYCASYRSSDQNIVFGGGTKLTVLGGGGSGGGGSGGGGSEVQLVESGGGLVQPGGSLRLSCAASGFTFSSYAMSWVRQAPGKGLEWVSTINSGTGSPYYADSVKGRFTISRDNSKNTLYLQMNSLRAEDTAVYYCAKNFFDGSWFLSPPAMDYWGQGTLVTVSSHHHHHH	8.5	27	0.0057	220000
AS170036 VL1VH1-57M108S (scFv, also called 30-AS170036 VL1VH1-57M108S) scFv: QSALTQPRSVSGSPGQSVTISCAGTSSDVGSENYVSWYQQHPGKAPKLMIYQVNKRASGVPDRFSGSKSGNTASLTISGLQAEDEADYYCASYRSSDHNIVFGGGTKLTVLGGGGSGGGGSGGGGSEVQLVESGGGLVQPGGSLRLSCAASGFTFSSYAMSWVRQAPGKGLEWVSTINSGTGMPYYADSVKGRFTISRDNSKNTLYLQMNSLRAEDTAVYYCAKNFFDGSWFLSPPAMDYWGQGTLVTVSSHHHHHH	6.8	33	0.0067	200000
AS170036 VL1VH1-57M108D (scFv, also called 29-AS170036 VL1VH1-57M108D) scFv: QSALTQPRSVSGSPGQSVTISCAGTSSDVGSENYVSWYQQHPGKAPKLMIYQVNKRASGVPDRFSGSKSGNTASLTISGLQAEDEADYYCASYRSSDHNIVFGGGTKLTVLGGGGSGGGGSGGGGSEVQLVESGGGLVQPGGSLRLSCAASGFTFSSYAMSWVRQAPGKGLEWVSTINSGTGMPYYADSVKGRFTISRDNSKNTLYLQMNSLRAEDTAVYYCAKNFFDGSWFLDPPAMDYWGQGTLVTVSSHHHHHH	11.8	19	0.0055	290000
AS170036 VL1VH1-57M108A (scFv, also called 28-AS170036 VL1VH1-57M108A) scFv: QSALTQPRSVSGSPGQSVTISCAGTSSDVGSENYVSWYQQHPGKAPKLMIYQVNKRASGVPDRFSGSKSGNTASLTISGLQAEDEADYYCASYRSSDHNIVFGGGTKLTVLGGGGSGGGGSGGGGSEVQLVESGGGLVQPGGSLRLSCAASGFTFSSYAMSWVRQAPGKGLEWVSTINSGTGMPYYADSVKGRFTISRDNSKNTLYLQMNSLRAEDTAVYYCAKNFFDGSWFLAPPAMDYWGQGTLVTVSSHHHHHH	13.6	17	0.004	240000
AS170036 VL1VH1-98I108D (scFv, also called 35-AS170036 VL1VH1-98I108D) scFv: QSALTQPRSVSGSPGQSVTISCAGTSSDVGSENYVSWYQQHPGKAPKLMIYQVNKRASGVPDRFSGSKSGNTASLTISGLQAEDEADYYCASYRSSDINIVFGGGTKLTVLGGGGSGGGGSGGGGSEVQLVESGGGLVQPGGSLRLSCAASGFTFSSYAMSWVRQAPGKGLEWVSTINSGTGSPYYADSVKGRFTISRDNSKNTLYLQMNSLRAEDTAVYYCAKNFFDGSWFLDPPAMDYWGQGTLVTVSSHHHHHH	15.8	14	0.0053	370000
AS170036 VL1VH1-57M98I (scFv, also called 14-AS170036 VL1VH1-57M98I) scFv: QSALTQPRSVSGSPGQSVTISCAGTSSDVGSENYVSWYQQHPGKAPKLMIYQVNKRASGVPDRFSGSKSGNTASLTISGLQAEDEADYYCASYRSSDINIVFGGGTKLTVLGGGGSGGGGSGGGGSEVQLVESGGGLVQPGGSLRLSCAASGFTFSSYAMSWVRQAPGKGLEWVSTINSGTGMPYYADSVKGRFTISRDNSKNTLYLQMNSLRAEDTAVYYCAKNFFDGSWFLGPPAMDYWGQGTLVTVSSHHHHHH	5.6	40	0.013	310000
